This is an account of results in the supplement of paper PMC9112550, “Optimization of the antimicrobial peptide Bac7 by deep mutational scanning” (BMC Biology, 2022).
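Note: peptides expressed intracellularly from a pBAD plasmid library in pooled LB shake-flask culture, induced with 0.3% L-arabinose, DNA abundance read by NGS, three biological replicates, DESeq2 with apeglm shrinkage.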

This data set deals with Escherichia coli TOP10. In words: shrunken log2 fold change of peptide-encoding DNA abundance (4.5 h post-induction vs induction); higher = less antimicrobial activity (less host growth inhibition). Conditions: time post-induction: 4.5 h; library: site-saturation at positions 5, 18, 19, 20.
As to RRIRERPPRLPRPRPRPAHTPRP, the “shrunken log2 fold change” value was -0.0788. The value for RRIRIRPPRLPRPRPRPIHRPRP was -0.197; that for RRIRIRPPRLPRPRPRPYAFPRP was -1.1. The value for RRIRNRPPRLPRPRPRPADTPRP was 0.124. Then RRIRTRPPRLPRPRPRPEKQPRP, with -0.0379; and RRIRHRPPRLPRPRPRPTMCPRP, with -0.00396; and RRIRIRPPRLPRPRPRPAFHPRP, with -0.2. For the sequence RRIRWRPPRLPRPRPRPRCTPRP, the “shrunken log2 fold change” value amounted to 0.243. In the case of RRIRWRPPRLPRPRPRPVGGPRP, the “shrunken log2 fold change” value was 0.494.

Turning to RRIRKRPPRLPRPRPRPVLHPRP, the “shrunken log2 fold change” value was determined as 0.484. The value for RRIRERPPRLPRPRPRPACWPRP was 0.715; that for RRIRRRPPRLPRPRPRPLLWPRP was 0.421; that for RRIRVRPPRLPRPRPRPQVAPRP was -0.136. On to RRIRYRPPRLPRPRPRPLQFPRP, for which the “shrunken log2 fold change” value is -0.537.

As to RRIRSRPPRLPRPRPRPLFYPRP, the “shrunken log2 fold change” value is -0.413. The value for RRIRVRPPRLPRPRPRPHMHPRP was -0.517. The value for RRIRIRPPRLPRPRPRPWKKPRP was 0.00748. Then RRIRLRPPRLPRPRPRPSRLPRP, with -0.0544. Turning to RRIRQRPPRLPRPRPRPHGGPRP, the “shrunken log2 fold change” value was -0.0841.

Take RRIRIRPPRLPRPRPRPNMYPRP: the “shrunken log2 fold change” value is -0.59.

Turning to RRIRRRPPRLPRPRPRPFDEPRP, the “shrunken log2 fold change” value stood at 0.0762. Then RRIRYRPPRLPRPRPRPTNYPRP, with 1.18. The value for RRIRTRPPRLPRPRPRPAVDPRP was -0.209. For RRIRDRPPRLPRPRPRPNEMPRP, the “shrunken log2 fold change” value stood at 0.00902.

Consider RRIRPRPPRLPRPRPRPRMPPRP, for which the “shrunken log2 fold change” value came out at 0.249.

For the sequence RRIRARPPRLPRPRPRPYESPRP, the “shrunken log2 fold change” value is -0.103. The value for RRIRWRPPRLPRPRPRPGRNPRP was -0.000528; that for RRIRVRPPRLPRPRPRPWYGPRP was -0.367; that for RRIRHRPPRLPRPRPRPDQHPRP was -0.00237. Regarding RRIRQRPPRLPRPRPRPQQHPRP, the “shrunken log2 fold change” value was -0.362. Then RRIRIRPPRLPRPRPRPMTRPRP, with -0.0885. Then RRIRRRPPRLPRPRPRPMLTPRP, with 0.211; and RRIRSRPPRLPRPRPRPRMVPRP, with 0.174; and RRIRDRPPRLPRPRPRPCCRPRP, with -0.197. Then RRIRKRPPRLPRPRPRPWSEPRP, with 0.00538; and RRIRSRPPRLPRPRPRPWSQPRP, with -0.00693. As for RRIRKRPPRLPRPRPRPHHSPRP, the “shrunken log2 fold change” value is -0.298. The value for RRIRDRPPRLPRPRPRPTFKPRP was -0.0434; that for RRIRKRPPRLPRPRPRPCARPRP was -0.00716; that for RRIRCRPPRLPRPRPRPFMYPRP was -0.592. Then RRIRCRPPRLPRPRPRPTQAPRP, with 0.199; and RRIRFRPPRLPRPRPRPAEWPRP, with 0.512.

RRIRDRPPRLPRPRPRPDVVPRP: the “shrunken log2 fold change” value was -0.0108. Turning to RRIRARPPRLPRPRPRPYEHPRP, the “shrunken log2 fold change” value was -0.25. The value for RRIRPRPPRLPRPRPRPGKFPRP was -0.385; that for RRIRRRPPRLPRPRPRPELYPRP was 0.247.

In the case of RRIRRRPPRLPRPRPRPLDVPRP, the “shrunken log2 fold change” value came out at 0.179. The value for RRIRMRPPRLPRPRPRPPFNPRP was 0.175; that for RRIRLRPPRLPRPRPRPKNTPRP was -0.333; that for RRIRFRPPRLPRPRPRPPPRPRP was 1.84. Then RRIRTRPPRLPRPRPRPPVAPRP, with 0.428; and RRIRMRPPRLPRPRPRPRFEPRP, with 0.36.

As to RRIRSRPPRLPRPRPRPAMTPRP, the “shrunken log2 fold change” value came out at 0.459. As for RRIRLRPPRLPRPRPRPTMCPRP, the “shrunken log2 fold change” value was -0.0109. Then RRIRDRPPRLPRPRPRPQNNPRP, with -0.653; and RRIRWRPPRLPRPRPRPCREPRP, with -0.189.

Regarding RRIRYRPPRLPRPRPRPIYYPRP, the “shrunken log2 fold change” value is -0.461.

As to RRIRPRPPRLPRPRPRPEGTPRP, the “shrunken log2 fold change” value worked out at 0.0836. As for RRIRTRPPRLPRPRPRPFKVPRP, the “shrunken log2 fold change” value amounted to 0.0475. The value for RRIRGRPPRLPRPRPRPCIEPRP was 0.0449; that for RRIRTRPPRLPRPRPRPDTCPRP was -0.0125; that for RRIRSRPPRLPRPRPRPIFMPRP was -0.117. Turning to RRIRNRPPRLPRPRPRPCQAPRP, the “shrunken log2 fold change” value was -0.112.
